Experimental data: patent US20240117035A1

Assays:
Jurkat (human) = Jurkat (human) (UniProt P07766); assay: FACS binding, Jurkat cells; conditions: bispecific antibody
SNU620 (human) = SNU620 (human) (UniProt P56856); assay: FACS binding, SNU620 cells; conditions: bispecific antibody

Jurkat (human), sequence (P07766 23-207): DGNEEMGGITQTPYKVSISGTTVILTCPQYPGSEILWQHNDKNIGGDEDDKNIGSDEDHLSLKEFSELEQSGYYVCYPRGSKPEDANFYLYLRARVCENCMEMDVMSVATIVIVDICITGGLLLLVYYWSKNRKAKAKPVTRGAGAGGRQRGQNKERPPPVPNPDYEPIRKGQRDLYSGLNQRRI

EC50 (Jurkat (human)): 0.55 nM
EC50 (SNU620 (human)): 87.8 nM
Substance: AMG-910
